Assay results as given in publication PMC7806473.
Values joined by “and” are separate entries in the source; they are usually repeats but may differ in a detail not shown here. Identical values can stand only once.

Assays:
[1] = target: T1, bovine alpha-lactalbumin (α-LA), calcium-depleted (bovine), P00711; experiment: MALDI-TOF-MS; 1:1 v/v mixture of 0.1% aqueous trifluoroacetic acid MALDI matrix and 50 mM sinapinic acid ionization matrix; conditions: remark: other sources report otherwise
T1 chain: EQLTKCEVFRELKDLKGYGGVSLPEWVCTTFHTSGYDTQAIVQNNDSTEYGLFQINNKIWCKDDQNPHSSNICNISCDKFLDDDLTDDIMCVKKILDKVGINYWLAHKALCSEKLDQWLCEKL

[2] = target: T1, bovine alpha-lactalbumin (α-LA), …; experiment: AUC; sedimentation velocity, 50,000 rpm, 20 °C, absorbance at 280 nm, c(s) continuous distribution analysis with SEDFIT; conditions: remark: other sources report otherwise

stoichiometry N [1]: 2 and 3 and 4
stoichiometry N [2]: 2 and 3
B1: bovine alpha-lactalbumin (α-LA), calcium-depleted, P00711 20-142 (natural protein)
chain: EQLTKCEVFRELKDLKGYGGVSLPEWVCTTFHTSGYDTQAIVQNNDSTEYGLFQINNKIWCKDDQNPHSSNICNISCDKFLDDDLTDDIMCVKKILDKVGINYWLAHKALCSEKLDQWLCEKL
